PMC8762078, “An ALS-associated variant of the autophagy receptor SQSTM1/p62 reprograms binding selectivity toward the autophagy-related hATG8 proteins” (The Journal of Biological Chemistry, 2021)

Target: p62 WT-AIM peptide (human)
Assay: native MS; ESI-MS competition binding under nondenaturing conditions: each hATG8 titrated into an equimolar mixture of WT-AIM and L341V-AIM peptides (each 10 μM); read-out is the ratio of peak intensities of unbound WT and L341V peptides; ratios given for 20 μM hATG8; two independent experiments

GABARAPL1, sequence (Q9H0R8 whole entry): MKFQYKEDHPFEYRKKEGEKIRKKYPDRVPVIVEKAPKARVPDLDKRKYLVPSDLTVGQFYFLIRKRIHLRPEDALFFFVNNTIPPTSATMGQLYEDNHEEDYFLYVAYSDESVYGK

- ratio of unbound WT:L341V AIM peptides at 20 μM hATG8 (reference: L341V-AIM): 0.5
Substance: GABARAPL1 (from UniProt Q9H0R8 1-117) (natural protein)
